Experimental data reported in PMC9646744, “Structural dynamics of AAA + ATPase Drg1 and mechanism of benzo-diazaborine inhibition” (Nature Communications, 2022).

Experiments:
[1] = target: the molecule itself; assay: negative-staining electron microscopy; Drg1 hexamers assembled in vitro with ADP, AMPPNP, ADP/AMPPNP/benzo-diazaborine or ATP/benzo-diazaborine; 0.02 mg/mL, 2% uranyl acetate, carbon-coated copper grids
[2] = target: the molecule itself; assay: cryo-EM structure; Drg1 E346Q/E617Q with ATP; GraFix (glycerol gradient with 0-0.05% glutaraldehyde); 50 mM HEPES-KOH pH 6.8, 150 mM KCl, 5 mM MgCl2, 1 mM DTT, 1 mM nucleotide; protomer with protomer in the hexamer

Protein	stoichiometry N [1]	stoichiometry N [2]
Drg1 (wild type, S. cerevisiae) (enzyme, UniProt P32794 1-780, looked up, Drg1, type II AAA+ ATPase encoded by AFG2, S. cerevisiae (genome of strain BY4741), full length; Hexamers assembled in vitro with ADP, AMPPNP, ADP/AMPPNP/benzo-diazaborine or ATP/benzo-diazaborine; stabilised by GraFix (glutaraldehyde) for cryo-EM; also called Drg1^WT; Drg1 hexamer; source: E. coli Transetta (DE3), purified (Ni-NTA, TEV cleavage, Mono Q, size-exclusion chromatography); not shown: …) MAPKSSSSGSKKKSSASSNSADAKASKFKLPAEFITRPHPSKDHGKETCTAYIHPNVLSSLEINPGSFCTVGKIGENGILVIARAGDEEVHPVNVITLSTTIRSVGNLILGDRLELKKAQVQPPYATKVTVGSLQGYNILECMEEKVIQKLLDDSGVIMPGMIFQNLKTKAGDESIDVVITDASDDSLPDVSQLDLNMDDMYGGLDNLFYLSPPFIFRKGSTHITFSKETQANRKYNLPEPLSYAAVGGLDKEIESLKSAIEIPLHQPTLFSSFGVSPPRGILLHGPPGTGKTMLLRVVANTSNAHVLTINGPSIVSKYLGETEAALRDIFNEARKYQPSIIFIDEIDSIAPNRANDDSGEVESRVVATLLTLMDGMGAAGKVVVIAATNRPNSVDPALRRPGRFDQEVEIGIPDVDARFDILTKQFSRMSSDRHVLDSEAIKYIASKTHGYVGADLTALCRESVMKTIQRGLGTDANIDKFSLKVTLKDVESAMVDIRPSAMREIFLEMPKVYWSDIGGQEELKTKMKEMIQLPLEASETFARLGISAPKGVLLYGPPGCSKTLTAKALATESGINFLAVKGPEIFNKYVGESERAIREIFRKARSAAPSIIFFDEIDALSPDRDGSSTSAANHVLTSLLNEIDGVEELKGVVIVAATNRPDEIDAALLRPGRLDRHIYVGPPDVNARLEILKKCTKKFNTEESGVDLHELADRTEGYSGAEVVLLCQEAGLAAIMEDLDVAKVELRHFEKAFKGIARGITPEMLSYYEEFALRSGSSS	6	
Drg1 E346Q/E617Q double mutant (Walker B motifs of D1 and D2) (enzyme, S. cerevisiae, UniProt P32794 1-780, looked up, Drg1, type II AAA+ ATPase encoded by AFG2, S. cerevisiae, full length, with the Walker B mutations E346Q and E617Q; Incubated with 5 mM ATP before size-exclusion chromatography; the atomic model covers residues 29 to 777; also called mutant Drg1; double mutant Drg1; source: E. coli Transetta (DE3), purified (Ni-NTA, TEV cleavage, Mono Q, size-exclusion chromatography); not shown: His6, …) MAPKSSSSGSKKKSSASSNSADAKASKFKLPAEFITRPHPSKDHGKETCTAYIHPNVLSSLEINPGSFCTVGKIGENGILVIARAGDEEVHPVNVITLSTTIRSVGNLILGDRLELKKAQVQPPYATKVTVGSLQGYNILECMEEKVIQKLLDDSGVIMPGMIFQNLKTKAGDESIDVVITDASDDSLPDVSQLDLNMDDMYGGLDNLFYLSPPFIFRKGSTHITFSKETQANRKYNLPEPLSYAAVGGLDKEIESLKSAIEIPLHQPTLFSSFGVSPPRGILLHGPPGTGKTMLLRVVANTSNAHVLTINGPSIVSKYLGETEAALRDIFNEARKYQPSIIFIDQIDSIAPNRANDDSGEVESRVVATLLTLMDGMGAAGKVVVIAATNRPNSVDPALRRPGRFDQEVEIGIPDVDARFDILTKQFSRMSSDRHVLDSEAIKYIASKTHGYVGADLTALCRESVMKTIQRGLGTDANIDKFSLKVTLKDVESAMVDIRPSAMREIFLEMPKVYWSDIGGQEELKTKMKEMIQLPLEASETFARLGISAPKGVLLYGPPGCSKTLTAKALATESGINFLAVKGPEIFNKYVGESERAIREIFRKARSAAPSIIFFDQIDALSPDRDGSSTSAANHVLTSLLNEIDGVEELKGVVIVAATNRPDEIDAALLRPGRLDRHIYVGPPDVNARLEILKKCTKKFNTEESGVDLHELADRTEGYSGAEVVLLCQEAGLAAIMEDLDVAKVELRHFEKAFKGIARGITPEMLSYYEEFALRSGSSS		6
